Reference: patent US20180127483A1 (CHILDREN S MEDICAL CENTER, published 2018)

Biological target: T1, recombinant human Flt-1/Fc chimera (R&D System 321-FL) (human, UniProt P17948 27-758)
T1 construct: extracellular domain; Bought from R&D Systems; also called VEGF-R1 extracellular domain Ig fusion; full-length VEGF-Receptor 1 extracellular domain; Fc part of the bought chimera not given
Test: solution equilibrium: 10 pM human VEGF165 incubated overnight with 0.05-1000 pM binder, unbound VEGF165 measured by ELISA, curve fit
Protocol: FIG. 4. Binding affinity analysis of VEGF-binding proteins. In brief, a fixed concentration of human VEGF₁₆₅ (10 pM) was incubated overnight at room temperature with varying concentrations (0.05 pM to 1000 pM) of VEGF binding proteins. 20 hours later, concentration of unbound VEGF₁₆₅ was measured by ELISA. Binding curves were fitted using Prizm software.

T1 sequence (P17948 27-758, change not shown): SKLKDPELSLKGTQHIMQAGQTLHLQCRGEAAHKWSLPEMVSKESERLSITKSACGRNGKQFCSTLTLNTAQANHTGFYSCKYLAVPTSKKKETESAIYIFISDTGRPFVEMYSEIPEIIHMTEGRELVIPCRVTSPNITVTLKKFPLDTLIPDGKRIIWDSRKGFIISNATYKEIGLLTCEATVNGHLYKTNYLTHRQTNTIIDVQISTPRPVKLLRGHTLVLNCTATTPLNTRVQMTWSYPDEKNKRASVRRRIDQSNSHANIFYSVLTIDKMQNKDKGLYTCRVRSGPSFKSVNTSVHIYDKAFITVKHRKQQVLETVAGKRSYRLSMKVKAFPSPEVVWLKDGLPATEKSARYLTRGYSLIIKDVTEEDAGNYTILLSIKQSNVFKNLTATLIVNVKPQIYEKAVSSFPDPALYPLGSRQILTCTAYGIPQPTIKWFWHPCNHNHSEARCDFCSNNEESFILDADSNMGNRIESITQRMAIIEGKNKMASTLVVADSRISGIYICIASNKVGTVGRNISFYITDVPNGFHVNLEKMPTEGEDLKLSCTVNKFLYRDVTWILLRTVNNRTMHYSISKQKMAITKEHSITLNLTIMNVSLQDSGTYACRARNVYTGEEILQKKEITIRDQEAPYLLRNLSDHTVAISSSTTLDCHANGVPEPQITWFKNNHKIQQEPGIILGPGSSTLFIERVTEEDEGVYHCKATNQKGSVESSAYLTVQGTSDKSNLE

Kd: 25.9 pM
B1: human VEGF165 (ligand, UniProt P15692-4 27-191, looked up)
chain: APMAEGGGQNHHEVVKFMDVYQRSYCHPIETLVDIFQEYPDEIEYIFKPSCVPLMRCGGCCNDEGLECVPTEESNITMQIMRIKPHQGQHIGEMSFLQHNKCECRPKKDRARQENPCGPCSERRKHLFVQDPQTCKCSCKNTDSRCKARQLELNERTCRCDKPRR
